The source of these data is publication PMC6628648, “Enabling microbial syringol conversion through structure-guided protein engineering” (Proceedings of the National Academy of Sciences of the …, 2019).

What is called Km is the substrate concentration at which the rate is half of its maximum. One may read the kcat as the maximal rate divided by the concentration of active sites. By kcat/Km is commonly meant the turnover number divided by the Michaelis constant.

One series deals with COc1cccc(OC)c1O. In words: purified protein, by the assay type. To be noted: pH 7.5; 25.0 °C.
In the next series the test system is COc1ccccc1O. In words: purified protein, by the assay type. The following applies: pH 7.5; 25.0 °C.

Regarding “GcoA-F169A (Amycolatopsis sp. ATCC 39116; F169A)”, in the series on COc1cccc(OC)c1O, the Km was 10 ± 1 µM, the kcat stood at 5.9 ± 0.01 s⁻¹ and the specificity constant (kcat/Km) was 600000 ± 90000 M⁻¹ s⁻¹. Besides, in the series on COc1ccccc1O, the Km amounted to 40 ± 6 µM, the kcat worked out at 11 ± 0.03 s⁻¹ and the kcat/Km worked out at 290000 ± 40000 M⁻¹ s⁻¹.
